# “Also recorded” adds a separate entry of the source.
# What was measured:
# PBMCs (CD8+ cells) = experiment: Cell viability assay with sodium dithionite (Annexin V, LIVE/DEAD, flow cytometry); format: cell-based, human; conditions: 10 mM, 16 hours exposure; primary and cultured cells
# Description: 10^6 freshly isolated PBMCs from healthy volunteers were incubated in 1 ml RPMI 1640 culture media containing HEPES-buffered 1 mM to 100 mM sodium dithionite (pH 7.4) at 37° C., 5% CO2. After 1-hour or 16-hour incubation, the cells were immediately assessed for cell viability or rested overnight in fresh media (for 1-hour treatment only). The cells were harvested, washed with PBS twice and stained with cell viability LIVE/DEAD® fixable near-IR stain (Molecular Probes®). The cells were then washed again with PBS and stained with anti-human CD8 (Clone RPA-T8; BioLegend) Brilliant Violet 421™ antibodies for 15 minutes. Thereafter, the cells were washed once with PBS and once with 1× Annexin V binding buffer (10 mM HEPES, pH 7.4; 140 mM NaCl; 2.5 mM CaCl2) prior to incubation with Annexin V FITC (eBioscience) for 10 minutes. The stained cells were immediately analyzed on BD LSRII flow cytometer and data were processed using FlowJo (Tree Star).
# HLA-A*02:01 = HLA-A*02:01 (Homo sapiens, UniProt P04439, D140Y/D185E/D98H/E176V/E277Q/G131W/G231S/I119V/I121R/I166T/I218V/L300P/L318F/N151K/N90K/P208A/P217A/Q86G/Q94H/R138H/R169H/T345S); conditions: cited from earlier work
# [1] = format: physicochemical
Molecule,known binder class to HLA-A*02:01 (HLA-A*02:01),other results
"O=S([O-])S(=O)[O-].[Na+].[Na+] [dithionite, sodium dithionite]",,apoptosis or cell death of cells exposed to buffered dithionite (PBMCs (CD8+ cells)): little sign of apoptosis or cell death
ALQLLLEV,intermediate-,
NMLSTVLGV,high-affinity,
SIIPSGPLK [Peptide 10],,"epitope modification after oxidative conditions ([1]; 0.3 mM sodium periodate, RT, 2 hours): cleaved the N-terminal Ser; also recorded: N-terminal serine of 10 was cleaved; epitope modification in PBS ([1]; PBS control incubation): unmodified"
SLENFRAYV,intermediate-,
VMLRWGVLA,intermediate-,
